± gives the standard deviation.
Experiment: protein stability index of a GFP-peptide fusion (GPS, HEK-293T) (PSI 1-6); higher = more stable
Conditions: c terminus: a fixed tail appended
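Note: 24-mer peptide tiles fused after GFP, lentivirally expressed, FACS-sorted into six equal bins by GFP/DsRed ratio, decoded by Illumina sequencing, PSI is the read-weighted mean bin number.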

Sequence | protein stability index (treatment: DMSO) | protein stability index (treatment: MLN4924 1 uM, 8 h)
ISEYEKSLQFDEKCLSIMLAEWEA [RPAIN] | 2.34 ± 0.3 | 2.87 ± 0.33
SREKTACAINKVGVSFSTVENELM [FAM98B] | 3.35 ± 0.28 | 3.63 ± 0.5
LVAKELGQTGTRLTPADKAEHMKR [AUP1] | 4.41 ± 0.4 | 4.29 ± 0.21
QSGLVWTNCWLIRELNLPFGGMKS [ALDH8A1] | 2.6 ± 0.48 | 2.61 ± 0.68
EGHPFKAYLELEITLSQEQIQKYT [RTN1] | 2.33 ± 0.67 | 2.13 ± 0.26
RDNGDPSLSSTATVLLVLEDEDPE [PCDHGC5] | 4.94 ± 0.36 | 5.16 ± 0.12
TPMTIPEFFRESVNRFGTYPALAS [ACSBG2] | 2.6 ± 0.41 | 2.78 ± 0.14
EKAKAFWAMRRSYEAIAKHNQVEA [TRIM35] | 2.83 ± 0.34 | 3.18 ± 0.26
SGQYRELGGAIDFGAAYVLEQASS [ATL3] | 3.47 ± 0.27 | 3.61 ± 0.41
FASDGDSGTCSPLRHSFQKQQREK [ADD1] | 3.98 ± 0.41 | 4.17 ± 0.39
DLKPENILFVNSEFETLYNEHKSC [CLK3] | 3.38 ± 0.37 | 3.48 ± 0.26
LPPKVGSFQLFVEGYKDADYWLRR [PI4K2A] | 2.41 ± 0.34 | 2.46 ± 0.17
SKNGNGLKNTPRFKRRRVRRRRME [PCMTD2] | 4.6 ± 0.2 | 4.58 ± 0.32
TGEKPHTCSECGKGFIQKGNLNIH [ZNF649] | 3.14 ± 0.25 | 3.54 ± 0.16
MSVILSMDNNRNLDLDSIIDEVRT [KRT71] | 2.61 ± 0.22 | 2.52 ± 0.59
CSIGFAVRYLNAYTGIVLLRCRKE [POP5] | 3.13 ± 0.43 | 2.99 ± 0.57
TNVESQLAEIRSDLERQNQEYQVL [KRT33B] | 4.52 ± 0.26 | 4.56 ± 0.25
HFDATNLHKQTASDLLDEKEIAKN [FEM1C] | 5.38 ± 0.15 | 5.31 ± 0.29

Sequence | protein stability index (treatment: DMSO) | protein stability index (treatment: MLN4924 1 uM, 8 h)
PFTPLHIKVKPKRVGIFLDYEAGT [TRIM39] | 2.45 ± 0.28 | 2.67 ± 0.26
VFMEFGPPNQQMSPSPMSHGHYSM [DLX1] | 2.21 ± 0.1 | 2.24 ± 0.23
GPVRPAIPPPLSSVYAWGGGLGTP [NEK8] | 3.18 ± 0.2 | 3.18 ± 0.27
ILHGTRGELLLDVAWHPVRPIIAS [RBBP5] | 2.51 ± 0.33 | 2.52 ± 0.25
ERLQKEEEKRRREEEERLRREEEE [ACBD3] | 5.67 ± 0.26 | 5.59 ± 0.23
EELRKFSSLCYKQRIKSQERETEA [MOG] | 4.47 ± 0.28 | 4.22 ± 0.076
GKKVSNQRFEVIEFDDGSGSVLRI [PTPRD] | 2.38 ± 0.74 | 2.5 ± 0.26
KQYVLLSILLCLLASGLVVFFLFP [TMEM106C] | 2.43 ± 0.28 | 2.56 ± 0.44
TSTRYEQPKCDNTARAHPAKARDL [SMOC2] | 4.85 ± 0.19 | 5.17 ± 0.27
ILKRRSDEALERCQILELLNAELE [CCDC89] | 2.68 ± 0.34 | 3 ± 0.42
PFGFQTVTSDVNKLSSFYSLKLIK [SERPINB5] | 2.15 ± 0.17 | 2.31 ± 0.41
VIVQIKQPRKKYVQRKSDFDQTVF [NETO1] | 2.09 ± 0.3 | 2.09 ± 0.076
GRHHSQSTEVQAHPYSTTFQESAS [TEKT4] | 4.31 ± 0.2 | 4.46 ± 0.3
ATECEFVGSLPVIVVGRLKVALEP [LPCAT4] | 2.36 ± 0.56 | 2.36 ± 0.59
LCSRQDLYPALKGVNTVFHCASPP [NSDHL] | 2.66 ± 0.32 | 2.79 ± 0.25
VRQLERENAELESRIQEWYEFQIP [KRT36] | 3.41 ± 0.16 | 3.43 ± 0.42
YILLVTSDVLTISGTIMKIGIEAK [MCOLN1] | 3.09 ± 0.5 | 3.17 ± 0.39
RLCGRQVSRGPGVNVGTTALWKHL [ZBED2] | 2.29 ± 0.36 | 2.17 ± 0.31
